From publication PMC10776578, “Epstein-Barr virus-driven B cell lymphoma mediated by a direct LMP1-TRAF6 complex” (Nature Communications, 2024)
Residue numbers refer to the chain shown, from its start. In names and notes the source's numbering stands. Where two headings read alike, the source gives them in different places.

B1: His-TRAF6_(310-522) (domain or fragment)
chain: DHQIRELTAKMETQSMYVSELKRTIRTLEDKVAEIEAQQCNGIYIWKIGNFGMHLKCQEEEKPVVIHSPGFYTGKPGYKLCMRLHLQLPTAQRCANYISLFVHTMQGEYDSHLPWPFQGTIRLTILDQSEAPVRQNHEEIMDAKPELLAFQRPTIPRNPKGFGYVTFMHLEALRQRTFIKDDTLLVRCEVSTRFDMGSLRREGFQPRSTDAGV
notes: also called His-T6; recombinant TRAF6 wild-type; source: E. coli BL21 Codon Plus RIPL, purified (Ni-NTA)
B2: GST-LMP1_(181-386) (domain or fragment)
chain: LIWMYYHGQRHSDEHHHDDSLPHPQQATDDSGHESDSNSNEGRHHLLVSGAGDGPPLCSQNLGAPGGGPDNGPQDPDNTDDNGPQDPDNTDDNGPHDPLPQDPDNTDDNGPQDPDNTDDNGPHDPLPHSPSDSAGNDGGPPQLTEEVENKGGDQGPPLMTDGGGGHSHDSGHGGGDPHLPTLLLGSSGSGGDDDDPHGPVQLSYYD
notes: also called LMP1 wild-type; LMP1 signalling domain; source: E. coli DH5α or BL21 Codon Plus RIPL, purified (glutathione Sepharose 4B)
B3: GST-CD40_(216-277) (domain or fragment)
chain: KKVAKKPTNKAPHPKQEPQEINFPDDLPGSNTAAPVQETLHGCQPVTQEDGKESRISVQERQ
notes: source: E. coli DH5α or BL21 Codon Plus RIPL, purified (glutathione Sepharose 4B)
B4: LMP1-derived CTAR2 peptide 11 (amino acids 357-386, 30mer) (peptide)
peptide: PHLPTLLLGSSGSGGDDDDPHGPVQLSYYD
notes: source: synthetic peptide, spot-synthesised on cellulose membrane
B5: LMP1-derived CTAR2 peptide 8 (amino acids 371-386, 16mer) (peptide)
peptide: GDDDDPHGPVQLSYYD
notes: as for B4
B6: TRAF6 inhibitor peptide DRQIKIWFQNRRMKWKK-RKIPTEDEY (peptide)
peptide: DRQIKIWFQNRRMKWKKRKIPTEDEY
notes: also called RANK-derived peptide; source: bought: Novus Biologicals NBP2-26506
B7: His-TRAF5_(363-557) (domain or fragment)
chain: DQRLAVLEEETNKHDTHINIHKAQLSKNEERFKLLEGTCYNGKLIWKVTDYKMKKREAVDGHTVSIFSQSFYTSRCGYRLCARAYLNGDGSGRGSHLSLYFVVMRGEFDSLLQWPFRQRVTLMLLDQSGKKNIMETFKPDPNSSSFKRPDGEMNIASGCPRFVAHSVLENAKNAYIKDDTLFLKVAVDLTDLEDL
notes: source: E. coli BL21 Codon Plus RIPL, purified (Ni-NTA)
B8: His-TRAF1_(226-416) (domain or fragment)
chain: RERILSLEQRVVELQQTLAQKDQALGKLEQSLRLMEEASFDGTFLWKITNVTRRCHESACGRTVSLFSPAFYTAKYGYKLCLRLYLNGDGTGKRTHLSLFIVIMRGEYDALLPWPFRNKVTFMLLDQNNREHAIDAFRPDLSSASFQRPQSETNVASGCPLFFPLSKLQSPKHAYVKDDTMFLKCIVETST
notes: as for B7

Experiments:
GST-CD40_(216-277) E235Q [1] = biological target: GST-CD40_(216-277) E235Q (human, UniProt P25942 216-277, E235Q)
GST-LMP1_(181-386) Y384D = biological target: T1, GST-LMP1_(181-386) Y384D (Epstein-Barr virus, UniProt P03230 181-386, Y384D); assay: AlphaScreen or HTRF; AlphaScreen PPI assay: His-TRAF and GST-LMP1, GST-CD40 or GST-RANK in PBS with 0.5% BSA and 0.1% Tween-20, 1 h at RT; standard 300 nM His-TRAF and 100 nM GST protein if not indicated otherwise; for KD His-TRAF6 at different concentrations, fit one site-specific binding with hill slope; settings: both partners purified
T1 construct: also called LMP1 Y384D; source: E. coli DH5α or BL21 Codon Plus RIPL, purified (glutathione Sepharose 4B)
T1 sequence: B2 chain with Y204D

GST-CD40_(216-277) E235Q [2] = biological target: T2, GST-CD40_(216-277) E235Q (human, UniProt P25942 216-277, E235Q); assay: as above; settings: both partners purified
T2 construct: also called CD40 E235Q; E to Q mutation at P0 of CD40; source: E. coli DH5α or BL21 Codon Plus RIPL, purified (glutathione Sepharose 4B)
T2 sequence: B3 chain with E20Q

GST-RANK_(314-355) E346Q = biological target: T3, GST-RANK_(314-355) E346Q (human, UniProt Q9Y6Q6 314-355, E346Q); assay: as above; settings: both partners purified
T3 construct: also called RANK E346Q; E to Q mutation at P0 of RANK; source: E. coli DH5α or BL21 Codon Plus RIPL, purified (glutathione Sepharose 4B)
T3 chain: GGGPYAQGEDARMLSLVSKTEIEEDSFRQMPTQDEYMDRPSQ

His-TRAF6_(310-522) [3] = biological target: B1; assay: as above; settings: both partners purified
[4] = biological target: T4, His-TRAF6_(310-522) K469A (human, UniProt Q9Y4K3 310-522, K469A); assay: as above; settings: both partners purified
T4 construct: also called TRAF6 K469A; source: E. coli BL21 Codon Plus RIPL, purified (Ni-NTA)
T4 sequence: B1 chain with K160A

[5] = biological target: T5, His-TRAF6_(310-522) R392A (human, UniProt Q9Y4K3 310-522, R392A); assay: as above; settings: both partners purified
T5 construct: also called TRAF6 R392A; source: E. coli BL21 Codon Plus RIPL, purified (Ni-NTA)
T5 sequence: B1 chain with R83A

His-TRAF6_(310-522) [6] = biological target: B1; assay: peptide or protein array; peptides spot-synthesised on cellulose membranes in duplicate, incubated with 10 µg per mL purified His-TRAF6 or His-TRAF2 in PBST with 5% milk powder for 4 h at RT; detection by TRAF-specific antibodies; settings: both partners purified
His-TRAF6_(310-522) [7] = biological target: B1; assay: AlphaScreen or HTRF; AlphaScreen PPI assay in competition: GST-LMP1 or GST-CD40 with His-TRAF6 (dose-response of TRAF6 inhibitor or control peptide, 4-parameter fit) or GST-LMP1 with His-TRAF2 (30 µM peptide); settings: both partners purified
His-TRAF6_(310-522) [8] = biological target: T6, His-TRAF6_(310-522) (human, UniProt Q9Y4K3 310-522); assay: competition with GST-CD40(216-277)
T6 chain: B1 chain

GST-LMP1_(181-386) = biological target: B2; assay: pull-down; settings: both partners purified
His-TRAF6_(310-522) [9] = biological target: T6, His-TRAF6_(310-522)
TRAF6_(346-504) for NMR = biological target: T7, TRAF6_(346-504) for NMR (human, UniProt Q9Y4K3 346-504, uniformly labeled with 15N); assay: NMR titration; settings: both partners purified
T7 construct: also called 15N-labeled TRAF6; source: E. coli Rosetta2 DE3, purified (Ni-NTA, SUMO cleavage, second Ni-NTA, SEC)
T7 sequence: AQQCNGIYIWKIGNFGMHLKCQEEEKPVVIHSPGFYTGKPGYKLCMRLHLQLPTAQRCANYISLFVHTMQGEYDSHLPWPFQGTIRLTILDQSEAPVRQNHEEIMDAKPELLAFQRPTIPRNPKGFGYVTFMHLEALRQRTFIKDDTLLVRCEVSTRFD

With B1 the Kd (GST-CD40_(216-277) E235Q [1]) was 73.9 nM, the “fold reduction of affinity against wild-type LMP1” value (GST-LMP1_(181-386) Y384D) was 1.8 fold and the “factor of reduction of affinity against wild-type CD40” value (GST-CD40_(216-277) E235Q [2]) was 4.3 fold. For the same binder, the “factor of reduction of affinity against wild-type RANK” value (GST-RANK_(314-355) E346Q) was 2 fold.

B2 was tested, and the Kd (His-TRAF6_(310-522) [3]) was 73.2 nM and the binding result [4] was “binds”.

With B3 the Kd (His-TRAF6_(310-522) [3]) was 17.1 nM, the binding result [4] was “binds” and the binding result [5] was “binds”.

B4: binds (His-TRAF6_(310-522) [6]).

B5: binds (His-TRAF6_(310-522) [6]).

Binder B6 has an IC50 (His-TRAF6_(310-522) [7]) of 177 nM and an IC50 (His-TRAF6_(310-522) [8]) of 546 nM.

B7: binds (GST-LMP1_(181-386)).

With GGGPYAQGEDARMLSLVSKTEIEEDSFRQMPTQDEYMDRPSQ (domain or fragment) [GST-RANK_(314-355) E346Q] the Kd (His-TRAF6_(310-522) [9]) was 15.6 nM.

GPVQLSYYD (source: unlabeled peptide (PSL)) [LMP1 peptide G378PVQLSYYD]: binds (TRAF6_(346-504) for NMR).

B8: binds (GST-LMP1_(181-386)).
